Test [1] has as its target T1, Human His-tagged RBP4 (residues 19-201), soluble (human, UniProt P02753 19-201). In words: yeast surface display, flow cytometry: soluble His-tagged RBP4 titrated on yeast displaying the binder, anti-penta-His detection, with 5 µM A1120. The source says:
(§1) "a" can be part of a soluble protein (secreted or exogenously added) or of a transmembrane construct and "c" can be part of a signal transducing construct (shown in A and B). Of course, "a" and "c" can be integrated in the constructs vice versa (not shown). There are many more possible arrangements (not shown). […] RBP4-binding was detected with an anti-penta-His antibody and subsequently analyzed by flow cytometry.
(In general: Flow cytometry measures light scatter and fluorescence of single cells or particles in a stream.)

Test [2] addresses T1, Human His-tagged RBP4 (residues …). In words: yeast display, + A1120; mean ± S.D., n=3.
For test [3] the target is unchanged. In words: yeast surface display, flow cytometry: soluble His-tagged RBP4 titrated on yeast displaying the binder, anti-penta-His detection, with 5 µM A1120; mean of three.
From the text: as §1

Test [4] shares this target. The test is described as follows: ITC, + A1120; mean ± S.D., n=4. The procedure: (§2) The samples were centrifuged (17000 g, 10 min, 20° C.) and dialysed against the same buffer (PBS). RBP4 protein solution was applied to the sample cell and the respective RBP4 binding interaction partners were titrated with varying intervals. Different concentrations both for RBP4 and RBP4 binding interaction partners were used. […] Data analysis was performed with the MicroCal PEAQ-ITC analysis software and the resulting data were fitted to a one-set-of-sites binding model. […] The integrated data were fitted to one-set-of-sites binding model to calculate the K_D values in FIG. 18.
A general note: In ITC the heat of successive injections is recorded.

The target is the same in test [5]. In words: ITC, -A1120; mean ± S.D., n=4. The procedure: as §2
Test [6] has the same target. In words: ITC; ratio of the KD without to the KD with A1120. As to the method:
as §2

Test [7] shares this target. In words: yeast surface display, flow cytometry: soluble His-tagged RBP4 titrated on yeast displaying the binder, anti-penta-His detection, with 5 µM A1120; mean of three. As to the method: All small molecules were present at a concentration of 5 µM. RBP4-binding was detected with an anti-penta-His antibody and subsequently analyzed by flow cytometry.
This is another data set of the same source.

The target is the same in test [8]. In words: SPR, + A1120; mean ± S.D., n=4. As to the method:
(§3) The antigen (RBP4) was coated onto a CM5 chip (GE Healthcare) and incubated with various concentrations of lipocalin-fold binding interaction partner solution in HBS-EP (GE Healthcare), followed by a dissociation phase in HBS-EP. […] Finally, K_d values (dissociation constants) were obtained by steady-state analysis.

Test [9] has the same target. The test is described as follows: SPR, -A1120; mean ± S.D., n=4. The procedure:
as §3

The target is the same in test [10]. The test is described as follows: SPR (Biacore T200), single-cycle kinetics, RBP4 immobilised on a CM5 chip, RS3 injected at 937.5-15000 nM, without A1120; steady-state analysis; one representative experiment of four. As to the method: (§4) Applied concentrations of RS3 are indicated in the plots. […] Figure 17B: Figure 17C:
as §3

For test [11] the target is unchanged. The test is described as follows: SPR (Biacore T200), single-cycle kinetics, RBP4 immobilised on a CM5 chip, RS3 injected at 6.25-100 nM, with 5 µM A1120; steady-state analysis; one representative experiment of four. The procedure: as §4, §3

The term EC50 (read off the curve) denotes the concentration that produces a half-maximal response. Higher therefore signals lower potency in that assay. Broadly, the Kd is the concentration at which binding is half-saturated.

B1: RF2, FN3-based lipocalin-fold binding interaction partner, displayed on the surface of yeast (designed binder)
chain: VSDVPRDLEVVAATPTSLLISWYYPNASHAGYYRITYGETGGNSPVQEFTVPFSIRYTIATISGLKPGVDYTITVYAVTDYAYYYRLSEPISINYRTEIDKPSQ
notes: not shown: Yeast-display carrier of the pCTCON2 construct (Aga2p anchor, HA tag, linker, c-myc tag)
In the case of B1, in test [1], the concentration giving a half-maximal response (EC50 (read off the curve)) was roughly 40 nM. Besides, the Kd was determined as 65 nM in [2] and 41.8 nM in test [3].

B2: RF2, FN3-based RBP4 binding interaction partner, soluble protein (designed binder)
chain: VSDVPRDLEVVAATPTSLLISWYYPNASHAGYYRITYGETGGNSPVQEFTVPFSIRYTIATISGLKPGVDYTITVYAVTDYAYYYRLSEPISINYRTEIDKPSQ
notes: Expressed in E. coli as His6-SUMO fusion; Monomeric by SEC
Turning to B2, the Kd was found to be 279 nM in test [4] and 4380 nM in [5]. In addition, in test [6], the “KD,-A1120 / KD,+A1120” value was 16.

B3: RF1, FN3-based lipocalin-fold binding interaction partner, displayed on the surface of yeast (designed binder)
chain: VSDVPRDLEVVAATPTSLLISWYYPNASHAGYYRVTYGETGGNSPVQEFTVPFSIRYTIATISGLKPGVDHTITVYAVTDYAYYYRSSEPISINYRTEIDKPSQ
notes: as for B1
As for B3, the “EC50 (read off the curve)” value in test [7] was roughly 6 nM. The same molecule showed an equilibrium dissociation constant (Kd) in test [3] of 169 nM.

B4: RF3, FN3-based lipocalin-fold binding interaction partner, displayed on the surface of yeast (designed binder)
chain: VSDVPRDLEVVAATPTSLLISWYYPNASHAGYYRITYGETGGNSPVQEFTVPFSIRYTIATISGLKPGVDYTITVYAVTASCQYCSYPISINYRTEIDKPSQ
notes: as for B1
On to B4, for which, in test [3], the affinity, expressed as Kd, was 67 nM.

B5: RS2, rcSso7d-based lipocalin-fold binding interaction partner, displayed on the surface of yeast (designed binder)
chain: ATVKLTYQGEEKQVDISKIKRVARYGQGIYFDYGEGGGAWGYGSVSEKDAPKELLQMLEKQ
notes: not shown: Yeast display carrier of pCTCON2 (Aga2p, HA tag, linker, C-terminal c-myc tag)
With B5, in [1], the “EC50 (read off the curve)” value is roughly 3 nM. The same molecule registered a dissociation constant (Kd) in [3] of 2.9 nM.

B6: RS5, rcSso7d-based lipocalin-fold binding interaction partner, displayed on the surface of yeast (designed binder)
chain: ATVKFTYQGEEKQVDISKIKRVARYGQGIYFDYGEGGGAWGYGSVSEEDAPKELLQMLEKQ
notes: as for B1
Turning to B6, the Kd was 80 nM in test [2] and 69.5 nM in test [3].

B7: RS1, rcSso7d-based lipocalin-fold binding interaction partner, displayed on the surface of yeast (designed binder)
chain: ATVKFTYQGEEEQVDISKIKKVARYGQNIYFSYDEGGGAWDYGGVSEKDAPKELLQMLEKQ
notes: as for B5
On to B7, for which the half-maximal effective concentration (EC50 (read off the curve)) in test [1] is 1 to 2 nM. Besides, in test [3], the equilibrium dissociation constant (Kd) was 1.5 nM.

B8: RS5, rcSso7d-based RBP4 binding interaction partner, soluble protein (designed binder)
chain: ATVKFTYQGEEKQVDISKIKRVARYGQGIYFDYGEGGGAWGYGSVSEEDAPKELLQMLEKQ
notes: as for B2
With B8, the dissociation constant (Kd) in test [4] came to 17 nM; in test [8] it was 38 nM; in test [5], 3780 nM; in test [9], 11000 nM. Further, the “KD,-A1120 / KD,+A1120” value in [6] is 222.

B9: RS3, rcSso7d-based lipocalin-fold binding interaction partner, displayed on the surface of yeast (designed binder)
chain: ATVKLTYQGEEKQVDISKIKRVARYGQNIYFSYDEGGGAYDYGAVSEKDAPKELLQMLEKQ
notes: as for B5
For B9, the concentration giving a half-maximal response (EC50 (read off the curve)) in test [1] is roughly 10 nM; in test [7], roughly 20 nM. The Kd came out at 13 nM in test [2] and 11.5 nM in test [3].

B10: RS4, rcSso7d-based lipocalin-fold binding interaction partner, displayed on the surface of yeast (designed binder)
chain: ATAKFTYQGEEKQVDISKIKRVARYGQGIYFSYDEGGGAYGYGSVSEKDAPKELLQMLEKQ
notes: as for B5
For the molecule B10, the dissociation constant (Kd) in test [3] was found to be 47.6 nM.

B11: RS3, rcSso7d-based RBP4 binding interaction partner, soluble protein (designed binder)
chain: ATVKLTYQGEEKQVDISKIKRVARYGQNIYFSYDEGGGAYDYGAVSEKDAPKELLQMLEKQ
notes: as for B2
For B11, the Kd in test [10] amounted to 6130 nM; in [4], 7 nM; in test [8] it was 9 nM; in [5], 2690 nM; in [11], 11 nM; in test [9] it was 4950 nM. For the same molecule, the “KD,-A1120 / KD,+A1120” value in test [6] amounted to 384.

The values are drawn from US11844813 (ST ANNA KINDERKREBSFORSCHUNG, dated 2023).
